# Source: patent US20240139371A1, “NEW ANTIMICROBIAL AND ANTITHROMBOGENIC MEDICAL DEVICE” (UNIVERSITÉ DE LIÈGE, priority 2021, published 2024)
# System: human platelets
# Test: Platelet adhesion assay (pNPP test)
# Format: cell-based
# Settings: human citrated PRP 45 min at 37° C.; PU = Carbothane PC3585A; PPG 468 and 728; fibrinogen-coated wells positive control; FIG. 10
# Experimental: • Blood collection tubes: sodium citrate Vacutainer tubes (3.2% citrate, BD Biosciences) • Non-binding 24-well and 96-well plates for suspension culture (polystyrene, Greiner Bio-One) • Spectrophotometer Spectra max PLUS 384 (Molecular Devices) • Human Fibrinogen ref 341576 (Calbiochem) • 2×pNPP buffer (0.1M citrate buffer pH5.4, 10 mM p-nitrophenylphosphate, 2% Triton X-100)
# Platelet adhesion on surfaces is analysed by using the p-NitroPhenil Phosphate (pNPP) test. Values obtained with this test are directly proportional to the number of platelets adhering to the surface. The pNPP test measures the levels of alkaline and acid phosphatases released upon platelet lysis. The hydrolysis of pNPP, a substrate of these phosphatases, produces p-nitrophenol, which has a maximal absorbance at 405 nm and is proportional to the amount of platelets bound to the surface. • 1. […] 100 μl is transferred in a 96-well plate before measuring the absorbance at 405 nm in a spectrophotometer. • 10. Background readings from the PPP incubation is subtracted from the PRP reads. • 11. Numbers of platelets are determined from a calibration curve performed with increasing platelet densities. e. […]
# Platelet adhesion was analysed by using the p-NitroPhenil Phosphate (pNPP) assay as described in the protocol of testing of example 10 at point b
substance,measurement,value
fibrinogen,human platelet adhesion,adhesion was observed
